T1: human IL-31R (IL-31 receptor) expressed on BaF cells (BaF/hIL-31R cells) (human, UniProt Q8NI17 20-732)
T1 sequence (looked up): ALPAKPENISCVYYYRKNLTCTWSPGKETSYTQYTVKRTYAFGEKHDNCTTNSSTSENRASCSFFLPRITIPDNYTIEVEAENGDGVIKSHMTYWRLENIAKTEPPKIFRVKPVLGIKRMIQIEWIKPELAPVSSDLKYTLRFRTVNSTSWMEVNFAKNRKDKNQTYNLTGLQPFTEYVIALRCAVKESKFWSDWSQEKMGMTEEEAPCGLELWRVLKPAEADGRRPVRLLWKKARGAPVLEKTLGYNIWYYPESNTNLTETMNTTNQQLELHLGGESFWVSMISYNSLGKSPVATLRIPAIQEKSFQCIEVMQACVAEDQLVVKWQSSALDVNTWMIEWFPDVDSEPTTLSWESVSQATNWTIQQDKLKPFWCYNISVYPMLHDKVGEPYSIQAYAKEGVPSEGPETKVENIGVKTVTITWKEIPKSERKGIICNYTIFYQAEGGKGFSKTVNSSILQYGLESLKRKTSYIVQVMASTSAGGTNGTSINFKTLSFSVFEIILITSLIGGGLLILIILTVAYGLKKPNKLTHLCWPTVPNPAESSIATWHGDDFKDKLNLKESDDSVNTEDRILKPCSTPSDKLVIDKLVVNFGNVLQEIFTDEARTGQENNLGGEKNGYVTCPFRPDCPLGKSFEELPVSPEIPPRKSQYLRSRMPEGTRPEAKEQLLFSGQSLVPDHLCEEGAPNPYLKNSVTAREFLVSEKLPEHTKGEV


Target: T1, human IL-31R (IL-31 receptor) expressed …
Experiment: cell-based or functional assay

| Binder | Relative biological activity compared to CIM331 reference material (%); inhibition of IL-31-dependent proliferation of BaF/hIL-31R cells [%] | Relative biological activity compared to main peak (%); inhibition of IL-31-dependent proliferation of BaF/hIL-31R cells [%] |
| --- | --- | --- |
| nemolizumab AE-HPLC fraction, peak b8 (Pre-Region 2), predominantly the succinimide form (Asu103 variant) (antibody, V domains shown, Asp103 (Kabat numbering position 99) altered to a succinimide residue (Asu103) at a ratio of 54.0% on peptide basis; Asp99 (Kabat 95) to succinimide 2.7%) VH: QVQLVQSGAEVKKPGASVKVSCKASGYTFTGYIMNWVRQAPGQGLEWMGLINPYNGGTDYNPQFQDRVTITADKSTSTAYMELSSLRSEDTAVYYCARDGYDDGPYTLETWGQGTLVTVSS VL: DIQMTQSPSSLSASVGDRVTITCQASEDIYSFVAWYQQKPGKAPKLLIYNAQTEAQGVPSRFSGSGSGTDFTLTISSLQPEDFATYYCQHHYDSPLTFGGGTKVEIKR | 23 | 21 |
| nemolizumab AE-HPLC fraction, peaks a2 + a3 (Post-Region) (antibody, V domains shown) VH: QVQLVQSGAEVKKPGASVKVSCKASGYTFTGYIMNWVRQAPGQGLEWMGLINPYNGGTDYNPQFQDRVTITADKSTSTAYMELSSLRSEDTAVYYCARDGYDDGPYTLETWGQGTLVTVSS VL: DIQMTQSPSSLSASVGDRVTITCQASEDIYSFVAWYQQKPGKAPKLLIYNAQTEAQGVPSRFSGSGSGTDFTLTISSLQPEDFATYYCQHHYDSPLTFGGGTKVEIKR | 110 | 100 |
| nemolizumab AE-HPLC fraction, peak a1 (Post-Region) (antibody, V domains shown, Deamidation at Asn384 in HC; ratio not given) VH: QVQLVQSGAEVKKPGASVKVSCKASGYTFTGYIMNWVRQAPGQGLEWMGLINPYNGGTDYNPQFQDRVTITADKSTSTAYMELSSLRSEDTAVYYCARDGYDDGPYTLETWGQGTLVTVSS VL: DIQMTQSPSSLSASVGDRVTITCQASEDIYSFVAWYQQKPGKAPKLLIYNAQTEAQGVPSRFSGSGSGTDFTLTISSLQPEDFATYYCQHHYDSPLTFGGGTKVEIKR | 110 | 100 |
| nemolizumab AE-HPLC fraction, peak a5 (Post-Region) (antibody, V domains shown, Deamidation at Asn55 in HC; ratio not given) VH: QVQLVQSGAEVKKPGASVKVSCKASGYTFTGYIMNWVRQAPGQGLEWMGLINPYNGGTDYNPQFQDRVTITADKSTSTAYMELSSLRSEDTAVYYCARDGYDDGPYTLETWGQGTLVTVSS VL: DIQMTQSPSSLSASVGDRVTITCQASEDIYSFVAWYQQKPGKAPKLLIYNAQTEAQGVPSRFSGSGSGTDFTLTISSLQPEDFATYYCQHHYDSPLTFGGGTKVEIKR | 88 | 79 |
| nemolizumab AE-HPLC fraction, peak a4 (Post-Region) (antibody, V domains shown) VH: QVQLVQSGAEVKKPGASVKVSCKASGYTFTGYIMNWVRQAPGQGLEWMGLINPYNGGTDYNPQFQDRVTITADKSTSTAYMELSSLRSEDTAVYYCARDGYDDGPYTLETWGQGTLVTVSS VL: DIQMTQSPSSLSASVGDRVTITCQASEDIYSFVAWYQQKPGKAPKLLIYNAQTEAQGVPSRFSGSGSGTDFTLTISSLQPEDFATYYCQHHYDSPLTFGGGTKVEIKR | 90 | 82 |
| nemolizumab AE-HPLC fraction, peaks b4 + b5 + b6 + b7 (Pre-Region 2) (antibody, V domains shown, Asu103 in HC (succinimide at Asp103); ratio not given) VH: QVQLVQSGAEVKKPGASVKVSCKASGYTFTGYIMNWVRQAPGQGLEWMGLINPYNGGTDYNPQFQDRVTITADKSTSTAYMELSSLRSEDTAVYYCARDGYDDGPYTLETWGQGTLVTVSS VL: DIQMTQSPSSLSASVGDRVTITCQASEDIYSFVAWYQQKPGKAPKLLIYNAQTEAQGVPSRFSGSGSGTDFTLTISSLQPEDFATYYCQHHYDSPLTFGGGTKVEIKR | 89 | 80 |
| nemolizumab AE-HPLC fraction, peaks b2 + b3 (Pre-Region 1) (antibody, V domains shown, Asu103 in HC; ratio not given) VH: QVQLVQSGAEVKKPGASVKVSCKASGYTFTGYIMNWVRQAPGQGLEWMGLINPYNGGTDYNPQFQDRVTITADKSTSTAYMELSSLRSEDTAVYYCARDGYDDGPYTLETWGQGTLVTVSS VL: DIQMTQSPSSLSASVGDRVTITCQASEDIYSFVAWYQQKPGKAPKLLIYNAQTEAQGVPSRFSGSGSGTDFTLTISSLQPEDFATYYCQHHYDSPLTFGGGTKVEIKR | 73 | 66 |
| nemolizumab AE-HPLC fraction, peak b1 (Pre-Region 1), isoAsp form (antibody, V domains shown, IsoAsp in CDR (Asp99/102/103) in HC, site not identified: two isoAsp residue-containing peptides at 11.6% and 2.7%; Asu99 1.1%, Asu102 0.2%, Asu103 4.7%) VH: QVQLVQSGAEVKKPGASVKVSCKASGYTFTGYIMNWVRQAPGQGLEWMGLINPYNGGTDYNPQFQDRVTITADKSTSTAYMELSSLRSEDTAVYYCARDGYDDGPYTLETWGQGTLVTVSS VL: DIQMTQSPSSLSASVGDRVTITCQASEDIYSFVAWYQQKPGKAPKLLIYNAQTEAQGVPSRFSGSGSGTDFTLTISSLQPEDFATYYCQHHYDSPLTFGGGTKVEIKR | 45 | 41 |
| nemolizumab AE-HPLC fraction, peak a6 (Post-Region) (antibody, V domains shown, Deamidation at Asn55 in the CDRs of the heavy chain, 14.9%) VH: QVQLVQSGAEVKKPGASVKVSCKASGYTFTGYIMNWVRQAPGQGLEWMGLINPYNGGTDYNPQFQDRVTITADKSTSTAYMELSSLRSEDTAVYYCARDGYDDGPYTLETWGQGTLVTVSS VL: DIQMTQSPSSLSASVGDRVTITCQASEDIYSFVAWYQQKPGKAPKLLIYNAQTEAQGVPSRFSGSGSGTDFTLTISSLQPEDFATYYCQHHYDSPLTFGGGTKVEIKR | 94 | 85 |

Source: patent publication US20250163163A1 (Chugai, published 2025)
